One substance from patent US20220074937A1 can be followed below.

Experiment [1] deals with CD19 CAR containing FMC63 scFv, on the cell surface (CD19 CAR-T cells, CD19 CAR-293T cells). Description: flow cytometry, CAR positive cells diluted 1:64 in negative cells; AF488-CD19sIg1-4 against SSC-A; data reproduced from De Oliveira SN, et al., J Transl Med, 2013. A general note: In flow cytometry, cells or beads pass a laser one at a time.
Experiment [2] shares this target. Kind of experiment: flow cytometry, CAR positive cells diluted 1:128 in negative cells; AF488-CD19sIg1-4 against SSC-A; data reproduced from De Oliveira SN, et al., J Transl Med, 2013.
The target is the same in experiment [3]. Description: flow cytometry, CAR positive cells unmixed; AF488-CD19sIg1-4 against SSC-A; data reproduced from De Oliveira SN, et al., J Transl Med, 2013.
Experiment [4] shares this target. Kind of experiment: flow cytometry, CAR positive cells diluted 1:8 in negative cells; AF488-CD19sIg1-4 against SSC-A; data reproduced from De Oliveira SN, et al., J Transl Med, 2013.
Experiment [5] has the same target. Description: flow cytometry, CAR positive cells diluted 1:16 in negative cells; AF488-CD19sIg1-4 against SSC-A; data reproduced from De Oliveira SN, et al., J Transl Med, 2013.
Experiment [6] shares this target. Kind of experiment: flow cytometry, CAR positive cells diluted 1:32 in negative cells; AF488-CD19sIg1-4 against SSC-A; data reproduced from De Oliveira SN, et al., J Transl Med, 2013.

Sequence of CD19 CAR containing FMC63 scFv, on the cell surface (CD19 CAR-T cells, CD19 CAR-293T cells) (chain, as listed by the source): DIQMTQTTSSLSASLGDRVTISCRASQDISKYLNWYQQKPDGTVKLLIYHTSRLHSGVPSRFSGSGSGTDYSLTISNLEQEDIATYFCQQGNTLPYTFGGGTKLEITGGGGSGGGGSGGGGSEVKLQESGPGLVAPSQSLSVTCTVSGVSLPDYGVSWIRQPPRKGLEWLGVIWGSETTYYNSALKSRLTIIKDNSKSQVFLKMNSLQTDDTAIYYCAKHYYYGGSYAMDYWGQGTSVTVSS

With CD19/Fc (Fc fusion), the % of cells in the AF488-CD19sIg1-4 positive gate, 1:64 in experiment [1] was 1.34%. In experiment [2], the % of cells in the AF488-CD19sIg1-4 positive gate, 1:128 came to 0.646%. For the same substance, in experiment [3], the % of cells in the AF488-CD19sIg1-4 positive gate, CAR positive cell (unmixed) worked out at 65.9%. The same substance gave a % of cells in the AF488-CD19sIg1-4 positive gate, 1:8 in experiment [4] of 9.24%. In experiment [5], this substance registered a % of cells in the AF488-CD19sIg1-4 positive gate, 1:16 of 4.28%. In addition, the % of cells in the AF488-CD19sIg1-4 positive gate, 1:32 in experiment [6] is 2.96%.
